Measurements from US20050043232A1.

T1: myostatin pro peptide (wild type)
T1 sequence: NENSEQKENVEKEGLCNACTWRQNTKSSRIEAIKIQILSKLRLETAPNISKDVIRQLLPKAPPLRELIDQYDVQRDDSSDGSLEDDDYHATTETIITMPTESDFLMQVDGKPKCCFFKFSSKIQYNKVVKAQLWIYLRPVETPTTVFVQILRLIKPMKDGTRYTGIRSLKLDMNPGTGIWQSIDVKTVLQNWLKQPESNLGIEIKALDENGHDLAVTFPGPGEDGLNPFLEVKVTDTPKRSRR

T2: 40-mer R to Q mutant peptide (SEQ ID NO:13)
T2 sequence: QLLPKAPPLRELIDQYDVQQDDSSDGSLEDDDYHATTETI

T3: 30-mer wild type myostatin pro peptide peptide (SEQ ID NO:15)
T3 sequence: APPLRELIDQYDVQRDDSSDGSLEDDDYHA

T4: 20-mer R to Q mutant peptide (SEQ ID NO:19)
T4 sequence: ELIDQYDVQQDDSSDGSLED

T5: 40-mer wild type myostatin pro peptide peptide (SEQ ID NO:12)
T5 sequence: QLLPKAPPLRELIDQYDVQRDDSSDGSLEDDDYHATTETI

T6: 30-mer R to Q mutant peptide (SEQ ID NO:16)
T6 sequence: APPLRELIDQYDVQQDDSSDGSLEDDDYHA

T7: 20-mer wild type myostatin pro peptide peptide (SEQ ID NO:18)
T7 sequence: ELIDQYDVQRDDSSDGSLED

T8: 30-mer D to A mutant peptide (SEQ ID NO:17)
T8 sequence: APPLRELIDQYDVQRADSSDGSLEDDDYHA

T9: 40-mer D to A mutant peptide (SEQ ID NO:14)
T9 sequence: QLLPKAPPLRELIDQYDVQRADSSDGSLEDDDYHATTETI

T10: 20-mer D to A mutant peptide (SEQ ID NO:20)
T10 sequence: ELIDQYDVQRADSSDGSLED

T11: myostatin pro peptide (wild type) (Homo sapiens (Human)) (UniProt O14793)
T11 sequence: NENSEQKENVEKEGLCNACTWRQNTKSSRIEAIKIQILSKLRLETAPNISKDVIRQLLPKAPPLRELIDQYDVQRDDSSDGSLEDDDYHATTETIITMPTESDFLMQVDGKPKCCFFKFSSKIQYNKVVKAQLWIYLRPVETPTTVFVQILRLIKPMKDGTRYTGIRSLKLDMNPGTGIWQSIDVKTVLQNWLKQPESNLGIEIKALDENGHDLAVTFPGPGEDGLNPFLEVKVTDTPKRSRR


Experiments:
[1] = tested on: T1, myostatin pro peptide (wild type)
[2] = tested on: T2, 40-mer R to Q mutant peptide (SEQ ID NO:13)
[3] = tested on: T3, 30-mer wild type myostatin pro peptide peptide (SEQ ID NO:15)
[4] = tested on: T4, 20-mer R to Q mutant peptide (SEQ ID NO:19)
[5] = tested on: T5, 40-mer wild type myostatin pro peptide peptide (SEQ ID NO:12)
[6] = tested on: T6, 30-mer R to Q mutant peptide (SEQ ID NO:16)
[7] = tested on: T7, 20-mer wild type myostatin pro peptide peptide (SEQ ID NO:18)
[8] = tested on: T8, 30-mer D to A mutant peptide (SEQ ID NO:17)
[9] = tested on: T9, 40-mer D to A mutant peptide (SEQ ID NO:14)
[10] = tested on: T10, 20-mer D to A mutant peptide (SEQ ID NO:20)
[11] = target: T11, myostatin pro peptide (wild type) (Homo sapiens (Human)); assay: cell-based or functional assay

fraction of proteolytically-cleaved myostatin complex active in the luciferase reporter assay (against a standard curve of C-terminal dimer) [11] [%] | Molecule | partial proteolytic cleavage of pro peptide in the latent complex, western blot (FIG. 3E; 1 µg complex, 250 ng proteinase, 16 hours 37° C.) [1] | proteolytic cleavage of free pro peptide (purified away from the C-terminal dimer) [1] | proteolytic cleavage of pro peptide, SDS-PAGE and western blot (500 ng substrate, 100 ng protease, overnight 37° C.; free pro peptide and latent complex) [1] | cleavage of synthetic peptide by conditioned medium containing TLL-2, C18 HPLC and mass spectrometry [2] | cleavage of synthetic peptide by conditioned medium containing TLL-2, C18 HPLC and mass spectrometry [3] | cleavage of synthetic peptide by conditioned medium containing TLL-2, C18 HPLC and mass spectrometry [4] | cleavage of synthetic peptide by conditioned medium containing TLL-2, C18 HPLC and mass spectrometry [5] | cleavage of synthetic peptide by conditioned medium containing TLL-2, C18 HPLC and mass spectrometry [6] | cleavage of synthetic peptide by conditioned medium containing TLL-2, C18 HPLC and mass spectrometry [7] | cleavage of synthetic peptide by conditioned medium containing TLL-2, C18 HPLC and mass spectrometry [8] | cleavage of synthetic peptide by conditioned medium containing TLL-2, C18 HPLC and mass spectrometry [9] | cleavage of synthetic peptide by conditioned medium containing TLL-2, C18 HPLC and mass spectrometry [10] | proteolytic cleavage of pro peptide in the purified latent complex, SDS-PAGE and western blot (FIG. 3D) [1]
– | mammalian Tolloid (mTLD) | mTLD was consistently less active than the other three | All four of these proteinases also cleaved pro peptide that had been purified away from the C-terminal dimer | each of the proteases cleaved the pro peptide whether it was in a purified form or in a complex with the myostatin C-terminal dimer | – | – | – | – | – | – | – | – | – | –
– | mammalian Tolloid-like-2 (mTLL-2) (enzyme, UniProt Q9WVM6 147-1012, looked up, species assumed) Tolloid-like protein 2: ATTSRTERIWPGGVIPYVIGGNFTGTQRAIFKQAMRHWEKHTCVTFVERTDEESFIVFSYRTCGCCSYVGRRGGGPQAISIGKNCDKFGIVAHELGHVVGFWHEHTRPDRDQHVTIIRENIQPGQEYNFLKMEAGEVSSLGETYDFDSIMHYARNTFSRGVFLDTILPRRDDNGVRPTIGQRVRLSQGDIAQARKLYKCPACGETLQDTTGNFSAPGFPNGYPSYSHCVWRISVTPGEKIILNFTSMDLFKSRLCWYDYVEIRDGYWRKAPLLGRFCGDKIPESLVSSDSRLWVEFRSSSSSLGKGFFAVYEAMCGGDITKDAGQIQSPNYPDDYRPSKECVWRITVPDGFHVGLTFQSFEIERHDSCAYDYLEIRDGPTEDSTLIGHFCGYEKPEAVKSSANRLWVKFVSDGSINKAGFAANFFKEVDECSWPDHGGCEQRCVNTLGSYTCACDPGYELAADKKTCEVACGGFITKLNGTITSPGWPKEYPTNKNCVWQVVAPVQYRISLQFEAFELEGNDVCKYDFVEVRSGLSPDAKLHGKFCGSETPEVITSQSNNMRVEFKSDNTVSKRGFRAHFFSDKDECAKDNGGCQQECVNTFGSYLCRCRNGYRLHENGHDCKEAGCAYKISSAEGTLMSPNWPDKYPSRKECTWNISSTAGHRVKITFSEFEIEQHQECAYDHLELYDGTDSLAPILGRFCGSKKPDPVVATGSSLFLRFYSDASVQRKGFQAVHSTECGGRLKAEVQTKELYSHAQFGDNNYPSQARCDWVIVAEDGYGVELIFRTFEVEEEADCGYDFMEAYDGYDSSAPRLGRFCGSGPLEEIYSAGDSLMIRFHTDDTINKKGFHARYTSTKFQDALHMRK | Three of the proteinases, BMP-1, mTLL-1, and mTLL-2, were approximately equally effective in cleaving the pro peptide | All four of these proteinases also cleaved pro peptide that had been purified away from the C-terminal dimer | each of the proteases cleaved the pro peptide whether it was in a purified form or in a complex with the myostatin C-terminal dimer | The 40-mer, 30-mer, and 20-mer wild type and R→Q mutant peptides were cleaved by conditioned media containing TLL-2 | The 40-mer, 30-mer, and 20-mer wild type and R→Q mutant peptides were cleaved by conditioned media containing TLL-2 | The 40-mer, 30-mer, and 20-mer wild type and R→Q mutant peptides were cleaved by conditioned media containing TLL-2 | The 40-mer, 30-mer, and 20-mer wild type and R→Q mutant peptides were cleaved by conditioned media containing TLL-2 | The 40-mer, 30-mer, and 20-mer wild type and R→Q mutant peptides were cleaved by conditioned media containing TLL-2 | The 40-mer, 30-mer, and 20-mer wild type and R→Q mutant peptides were cleaved by conditioned media containing TLL-2 | the peptides containing the D→A mutation at the P1′ position were not cleaved | the peptides containing the D→A mutation at the P1′ position were not cleaved | the peptides containing the D→A mutation at the P1′ position were not cleaved | –
– | bone morphogenic protein-1 (BMP-1) (enzyme, UniProt P13497 121-986, looked up, species assumed) Bone morphogenetic protein 1: AATSRPERVWPDGVIPFVIGGNFTGSQRAVFRQAMRHWEKHTCVTFLERTDEDSYIVFTYRPCGCCSYVGRRGGGPQAISIGKNCDKFGIVVHELGHVVGFWHEHTRPDRDRHVSIVRENIQPGQEYNFLKMEPQEVESLGETYDFDSIMHYARNTFSRGIFLDTIVPKYEVNGVKPPIGQRTRLSKGDIAQARKLYKCPACGETLQDSTGNFSSPEYPNGYSAHMHCVWRISVTPGEKIILNFTSLDLYRSRLCWYDYVEVRDGFWRKAPLRGRFCGSKLPEPIVSTDSRLWVEFRSSSNWVGKGFFAVYEAICGGDVKKDYGHIQSPNYPDDYRPSKVCIWRIQVSEGFHVGLTFQSFEIERHDSCAYDYLEVRDGHSESSTLIGRYCGYEKPDDIKSTSSRLWLKFVSDGSINKAGFAVNFFKEVDECSRPNRGGCEQRCLNTLGSYKCSCDPGYELAPDKRRCEAACGGFLTKLNGSITSPGWPKEYPPNKNCIWQLVAPTQYRISLQFDFFETEGNDVCKYDFVEVRSGLTADSKLHGKFCGSEKPEVITSQYNNMRVEFKSDNTVSKKGFKAHFFSDKDECSKDNGGCQQDCVNTFGSYECQCRSGFVLHDNKHDCKEAGCDHKVTSTSGTITSPNWPDKYPSKKECTWAISSTPGHRVKLTFMEMDIESQPECAYDHLEVFDGRDAKAPVLGRFCGSKKPEPVLATGSRMFLRFYSDNSVQRKGFQASHATECGGQVRADVKTKDLYSHAQFGDNNYPGGVDCEWVIVAEEGYGVELVFQTFEVEEETDCGYDYMELFDGYDSTAPRLGRYCGSGPPEEVYSAGDSVLVKFHSDDTITKKGFHLRYTSTKFQDTLHSRK | Three of the proteinases, BMP-1, mTLL-1, and mTLL-2, were approximately equally effective in cleaving the pro peptide | All four of these proteinases also cleaved pro peptide that had been purified away from the C-terminal dimer | each of the proteases cleaved the pro peptide whether it was in a purified form or in a complex with the myostatin C-terminal dimer | – | – | – | – | – | – | – | – | – | incubation of the purified latent complex with purified BMP-1 resulted in complete cleavage of the pro peptide to generate a single product
> 50 | mammalian Tolloid-like-1 (mTLL-1) (enzyme, UniProt Q62381 148-1013, looked up, species assumed) Tolloid-like protein 1: AATSRTERIWPGGVIPYVIGGNFTGSQRAMFKQAMRHWEKHTCVTFTERSDEESYIVFTYRPCGCCSYVGRRGNGPQAISIGKNCDKFGIVVHELGHVIGFWHEHTRPDRDNHVTIIRENIQPGQEYNFLKMEPGEVNSLGERYDFDSIMHYARNTFSRGMFLDTILPSRDDNGIRPAIGQRTRLSKGDIAQARKLYRCPACGETLQESSGNLSSPGFPNGYPSYTHCIWRVSVTPGEKIVLNFTTMDLYKSSLCWYDYIEVRDGYWRKSPLLGRFCGDKVAGVLTSTDSRMWIEFRSSSNWVGKGFAAVYEAICGGEIRKNEGQIQSPNYPDDYRPMKECVWKIMVSEGYHVGLTFQAFEIERHDSCAYDHLEVRDGASENSPLIGRFCGYDKPEDIRSTSNTLWMKFVSDGTVNKAGFAANFFKEEDECAKPDRGGCEQRCLNTLGSYQCACEPGYELGPDRRSCEAACGGLLTKLNGTITTPGWPKEYPPNKNCVWQVIAPSQYRISVKFEFFELEGNEVCKYDYVEIWSGPSSESKLHGKFCGADIPEVMTSHFNNMRIEFKSDNTVSKKGFKAHFFSDKDECSKDNGGCQHECVNTMGSYTCQCRNGFVLHENKHDCKEAECEQKIHSPSGLITSPNWPDKYPSRKECTWVISAIPGHRITLAFNEFEVEQHQECAYDHLEIFDGETEKSPILGRLCGSKIPDPLMATGNEMFIRFISDASVQRKGFQATHSTECGGRLKAESKPRDLYSHAQFGDNNYPGQLDCEWLLVSERGSRLELSFQTFEVEEEADCGYDYVEVFDGLSSKAVGLGRFCGSGPPEEIYSIGDVALIHFHTDDTINKKGFYIRYKSIRYPETMHAKN | Three of the proteinases, BMP-1, mTLL-1, and mTLL-2, were approximately equally effective in cleaving the pro peptide | All four of these proteinases also cleaved pro peptide that had been purified away from the C-terminal dimer | each of the proteases cleaved the pro peptide whether it was in a purified form or in a complex with the myostatin C-terminal dimer | – | – | – | – | – | – | – | – | – | –
